The test addresses LGF2. The experiment in a line: two-hybrid; BacterioMatch II bacterial two-hybrid in E. coli reporter cells; bait in pBT as λcI fusion, prey in pTRG as RNAPα fusion; 30 ng each of bait and prey vector; HIS3 reporter, cfu on selective screening medium with 3-AT; three repeats, mean ± 1 SD.

The source of these data is PMC4315436.

On to Gal11^P (domain or fragment), for which the cfu on selective screening medium (with 3-AT) is 1000 cfu.
